# Measured values reported in patent US9664676B2, “RNA sequences that induce fluorescence of small molecule fluorophores” (Cornell University, priority 2013, dated 2017).
# *1 amine or outer side, *2 acyl side, *3 side chain or, on linkers, in order; H or OH if unused. Where a SMILES comes first, the peptide text is derived from it. Bridges are numbered along the chain shown (N, C = ends). Roman numbers before positions name the chains, in order. [ ]: non-standard residue; d: D form. Actinocin(9to1) = Cc1c2oc3c(C)ccc(C(=O)[*:1])c3nc-2c(C(=O)[*:2])c(N)c1=O; NMeV = CN[C@H](C(=O)O)C(C)C; Sar = CNCC(=O)O
# B1: dBroccoli: dimeric Broccoli, SEQ ID NO: 12 (nucleic acid)
# chain: GAGACGGUCGGGUCCAUCUGAGACGGUCGGGUCCAGAUAUUCGUAUCUGUCGAGUAGAGUGUGGGCUCAGAUGUCGAGUAGAGUGUGGGCUC
# modifications: listed as RNA, chemistry not fully specified
# B2: 29-1: 99-nucleotide RNA aptamer from SELEX-FACS, SEQ ID NO: 3 (nucleic acid)
# chain: GGAGACGCAACUGAAUGAAAUGGUGAAGGAGACGGUCGGGUCCAGGCACAAAAAUGUUGCCUGUUGAGUAGAGUGUGGGCUCCGUAACUAGUCGCGUCAC
# modifications: listed as RNA, chemistry not fully specified
# How the values were obtained:
# COS-7 cells [1] = test: Live cell imaging of (CGG)60-Spinach / (CGG)60-Spinach2 in COS-7 cells; type: cell-based; conditions: at 8 h, 1 μg/ml
# Method: Transfection of COS-7 Cells and Live Cell Imaging: COS-7 cells (ATCC-CRL-1651) were cultured and passaged in DMEM supplemented with 50 units of penicillin and 50 μg of streptomycin per milliliter. […] Cells were imaged in CO2-independent medium (Invitrogen) supplemented with L-glutamine. At 30 min-1 h before imaging, medium was supplemented with 25 mM HEPES, 5 mM MgSO4, 1 μg/ml Hoechst 33342 (when appropriate) and 20 μM DFHBI or vehicle. […] Spinach was imaged with a filter cube typically used for fluorescein or EGFP, with a sputter-coated excitation filter 470/40 nm, dichroic mirror 495 nm (long-pass), and emission filter 525/50 (Chroma Technology). DsRed-Max and mCherry were imaged using a filter cube typically used for Texas Red, with a sputter coated excitation filter 560/40 nm and emission filter 630/75 nm (Chroma Technology). Background intensity was subtracted from all pixel intensity measurements. Image analyses were completed with NIS-Elements AR 3.2 (Nikon). Drug treatments were carried out as specified. […] DMSO was added to a final concentration of 0.1% for vehicle treatments. […] After 2 h, the transfection medium was replaced with imaging medium containing DFHBI.
# COS-7 cells [2] = test: Analysis of DFHBI cell permeability; type: in vitro ADME; conditions: mammalian cells, 20 μM DFHBI
# Method: Analysis of DFHBI Cell Permeability: COS-7 cells were transfected with pCDNA-60CGG-Spinach2. 24 h after transfection, cells were imaged in medium supplemented with 25 mM HEPES, 5 mM MgSO4, 1 μg/ml Hoechst 33342 and 20 μM DFHBI. Images were acquired for Hoechst and Spinach2 signals every 5 min for 1 h for 20 cells. All signals were first normalized to area and then normalized to the highest signal for a given nucleus to determine the time for maximal signal to be reached.
# E. coli = test: Fluorescence measurements of E. coli (colonies, suspensions) expressing aptamers with DFHBI-1T; type: cell-based, Escherichia coli; conditions: tRNA fusions, suspension/plate reader, DFHBI-1T
# Method: Fluorescence Measurements of E. coli: Fluorescence measurements of E. coli were done in two general ways. To assess fluorescence brightness of bacterial colonies on a plate Acella or LMG194 strains cells were transferred to a new LB/agar dish with respective antibiotic and allowed to grow overnight at 37° C. Typically four to six colonies for the same aptamer were grown on the same plate to provide statistical data. These plates already contained 40 μM DFHBI-1T (or DFHBI) and 0.2% arabinose (in case of LMG194 strain). When Acella strain was used, 1 mM IPTG was added the next morning and incubation was continued for four to six hours more at 37° C. Bacterial colonies were then imaged under ChemiDoc MP imager as described above and images were processed in ImageJ program.
# To measure fluorescence of bacterial cell suspensions BL21 Star (DE3) (Life Technologies) strain and pET28c-based expression plasmids were used. This combination provided the strongest signal. Fresh colony was inoculated into LB media with kanamycin and allowed to grow overnight at 37° C. to OD600 0.4. The cells were then induced with addition of 1 mM IPTG for 2-4 h at 37° C. After induction, cells were normalized for cell density and incubated with 400 μM DFHBI-1T. Cells were then measured for total fluorescence using a Genios Pro plate reader at 465 nm excitation and 535 nm emission. All values were normalized for slightly different excitation and emission spectra of Spinach2 and Broccoli.
# HEK293T cells = test: Flow cytometry of HEK293T cells expressing 5S rRNA-aptamer fusions with DFHBI-1T; type: cell-based; conditions: flow cytometry
# Method: FIG. 24 illustrates the quantification of the flow cytometry analysis of aptamers expression in mammalian cells. To compare specific aptamers' brightness in mammalian cells, HEK293T cells were transfected with two plasmids: one expressing aptamer (with or without tRNA) fused to 5S rRNA and another expressing mCherry fluorescent protein. Cells were then treated with 40 μM DFHBI-1T and analyzed on FACSAria III instrument in two channels: green (ex=488 nm; em=525±50 nm) and red (ex=561 nm and em=610±20). For quantification, mean fluorescent signal of the non-negative population was calculated and then mean fluorescent signal of the negative population was subtracted from it to assess specific, not background fluorescent signal. Finally, this number was multiplied by the percentage of the non-negative population to provide the total fluorescent signal of the non-negative population. These numbers are plotted on the bar graph above. Where indicated, cells were also pre-treated with 5 mM MgSO4. Error bar indicates robust SD calculated by FlowJo program, used for data analysis.
# Imaging 5S-tBroccoli and 5S-t-tdBroccoli: Plasmids were transfected into HEK293T cell using FuGENE HD reagent (Promega) following manufacture's protocol. Cell imaging was carried out as previously described for 5S-Spinach (Paige et al., “RNA Mimics of Green Fluorescent Protein,” Science 333(6042): 642-6 (2011), which is hereby incorporated by reference in its entirety) with DFHBI-1T instead of DFHBI. […]
# Flow cytometry was used to quantify average brightness of tRNA. Transfected cells were analyzed in two channels: green (ex=488 nm; em=525±50 nm) and red (ex=561 nm; em=610±20). […] As evidenced from FIG. 14A, 5S-tBroccoli and 5S-tdBroccoli are clearly detectable in the green fluorescence channel and this specific signal appears only upon cells treatment with DFHBI-1T (FIG. 23).
# [3] = In-gel imaging of tBroccoli and tdBroccoli (DFHBI-1T / SYBR Gold staining); type: biochemical; conditions: in vitro transcribed tBroccoli and tdBroccoli in PAGE gel
# Method: In-Gel Imaging of Spinach-Containing RNAs: Total bacterial RNA was purified using Trizol LS reagent (Life Technologies) following the manufacturer's protocol. Typically, 200-500 ng of total RNA or 50-100 ng of in vitro transcribed RNA was loaded into a well of precast 6% TBE-Urea Gel (Life Technologies) and ran at 270-300 V in 1×TBE buffer. RiboRuler Low Range RNA Ladder (Thermo Scientific) was used as band size standard.
# After the gel was run to completion, the gel was washed 3×5 min with water and then stained for 30 min in 10 μM DFHBI or DFHBI-1T in buffer containing 40 mM HEPES pH 7.4, 100 mM KCl, 1 mM MgCl2. Then gel was imaged using a ChemiDoc MP with 470/30 nm excitation and 532/28 nm emission. Next, to see all the RNA in the sample, the gel was again washed 3×5 min with water followed by staining for 30 min with SYBR Gold (or Green) dye (Life Technologies) diluted 1/10000 in TBE buffer. Then gel was imaged under the same instrument using preset SYBR Gold (or Green) channel (302 nm excitation and 590/110 nm emission). Gel bands intensities were quantified in Image Lab 5.0 software (Bio-Rad). The bacterial 5S rRNA band was used for loading normalization.
# [4] = In vitro fluorescence activation of DFHBI by 29-1; type: biochemical; conditions: bound to DFHBI
# From the text: (§1) In Vitro Characterization of Aptamers: dsDNA from the brightest bacterial cells in a library was PCR amplified from eluted plasmids. Truncation, deletion and point mutation mutants were generated from dsDNAs PCR amplified based on respective ssDNA templates (Protein and Nucleic Acid Facility, Stanford University Medical Center). Primers were designed so the PCR product contained T7 promoter sequence. When indicated, dsDNA or ssDNA also contained tRNA scaffold part. PCR products were then purified with PCR purification columns (Qiagen) and in vitro transcribed utilizing AmpliScribe T7-Flash Transcription Kit (Epicenter). RNA was purified using Bio-Spin columns (Bio-Rad), and quantified using both absorbance values and the Quant-iT RiboGreen RNA Assay Kit (Life Technologies).
# All in vitro RNA properties were measured in 40 mM HEPES pH 7.4, 100 mM KCl, 1 mM MgCl2 buffer unless specified separately. […]
# To measure the fluorescence of aptamer-fluorophore complexes, an approach that overcomes potential confounding effects of incomplete RNA folding was used. The fluorescence of RNA-fluorophore complexes can be measured in either of two ways: using “excess RNA” or “excess fluorophore” (Ponchon et al., “Recombinant RNA Technology: the tRNA Scaffold,” Nat. Methods 4(7): 571-6 (2007), which is hereby incorporated by reference in its entirety). […]
# [5] = Fluorescence of aptamers bound to DFHO; type: biochemical
# Method: To explore this phenomenon further, a library containing over 10 million mutants of this sequence was prepared. Each of the sequences was individually expressed in E. coli bacteria. The bacteria was incubated with the fluorophore DFHO and then sorted based on their fluorescent signal on a fluorescence-activated cell sorting (FACS) instrument. Analysis of the mutations introduced into the 29-1 aptamer allowed prediction of the core sequence necessary for binding DFHO. The possibility that the core binding sequence for DFHO fluorophore is the same as for the DFHBI fluorophore was also considered. The core binding sequence for DFHBI fluorophore is identified in preceding Example 21.
# [6] = In vitro fluorescence activation of DFHBI-1T by 29-1 and truncation mutants; type: biochemical; conditions: bound to DFHBI-1T
# From the text: as §1
# All in vitro RNA properties were measured in 40 mM HEPES pH 7.4, 100 mM KCl, 1 mM MgCl2 buffer unless specified separately. All values presented are averaging of at least three independent experiments, error bars are standard deviations.
# (§2) To measure the fluorescence of aptamer-fluorophore complexes, an approach that overcomes potential confounding effects of incomplete RNA folding was used. The fluorescence of RNA-fluorophore complexes can be measured in either of two ways: using “excess RNA” or “excess fluorophore” (Ponchon et al., “Recombinant RNA Technology: the tRNA Scaffold,” Nat. Methods 4(7): 571-6 (2007), which is hereby incorporated by reference in its entirety). In an “excess RNA” experiment enough RNA was added to ensure that all the fluorophore (e.g. 1 μM) is bound to the RNA even if a sizeable portion of the RNA is unfolded. As a result, one can be confident that a 1 μM RNA-fluorophore complex is present, and one can therefore calculate the “molar brightness,” the fluorescence of a specific concentration of RNA-fluorophore complex independent of RNA folding. In the case of excess fluorophore experimental conditions were reversed and 1 μM of RNA was used with a vast excess of the fluorophore. In this case, the amount of RNA-fluorophore complex is highly dependent on the amount of RNA that is folded.
# [7] = Folding measurements with DFHBI-1T; type: physicochemical; conditions: in vitro folding assay
# Method: Briefly, fluorescence intensity of two solutions were compared: the one having excess of the dye and limiting amount of RNA and the other with excess of RNA and limiting amount of the dye. 1 μM of 1T (or RNA) and 20 μM of RNA (or 1T) was used. Signal from the first condition (limiting RNA) was divided by the signal from the second condition (limiting dye) to determine the fraction folded. To measure folding in a context of different flanking sequences RNA was generated from separate dsDNA fragments. These fragments were PCR amplified to have β-actin, 5S rRNA and 7SK RNA sequences on either or both sides of Broccoli. The folding assay then proceeded as described above.
# as §2
molecule,measurement,setting,value
"Cc1c2oc3c(C)ccc(C(=O)N[C@@H]4C(=O)N[C@H](C(C)C)C(=O)N5CCC[C@H]5C(=O)N(C)CC(=O)N(C)[C@@H](C(C)C)C(=O)O[C@@H]4C)c3nc-2c(C(=O)N[C@@H]2C(=O)N[C@H](C(C)C)C(=O)N3CCC[C@H]3C(=O)N(C)CC(=O)N(C)[C@@H](C(C)C)C(=O)O[C@@H]2C)c(N)c1=O [actinomycin D] (I: T[dV]P[Sar][NMeV] / II: T[dV]P[Sar][NMeV]; ester I:1-I:C, II:1-II:C; linker I:N-II:N via Actinocin(9to1))",cytotoxicity in COS-7 cells,COS-7 cells [1],cytotoxicity was observed
"CC1=NC(=Cc2cc(F)c(O)c(F)c2)C(=O)N1C [DFHBI, 4-(3,5-difluoro-4-hydroxybenzylidene)-1,2-dimethyl-imidazol-5-one]",time to maximal fluorescence (ability to enter cells),COS-7 cells [2],~30 min
B1,fluorescence of aptamer-expressing E. coli cells,E. coli,approximately twice as fluorescent as cells expressing Broccoli
same,detection in HEK293T cells of 5S fusions without tRNA scaffold,HEK293T cells,can be detected in cells
same,fluorescence compared to monomeric Broccoli,[3],almost twice the fluorescence as the monomeric Broccoli
B2,emission (em),[4],501 nm
same,excitation (ex),[4],450 nm
same,effect on DFHO fluorescence,[5],significantly enhancing its fluorescence
same,emission (em),[6],507 nm
same,excitation (ex),[6],472 nm
same,percent folded,[7],81%
